The data set deals with K4 kissing-loop RNA reporter. As to the kind of experiment: apparent KD of K4 kissing-loop reporter; higher = weaker reporter binding. As to conditions: Eterna round: R107. The method, then:
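RNA-MaP round R107: designed RNA switches with theophylline, tryptophan, arginine or FMN aptamers are transcribed on-chip within common flanks. They are titrated with a labelled K4 kissing-loop RNA reporter in RNA-MaP buffer (100 mM Tris pH 7.5, 80 mM KCl, 4 mM MgCl2), without ligand or with the indicated ligand. Median apparent KD per design.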

The mark [1] stands for this setting: input ligand: theophylline 20 uM.
The mark [2] stands for this setting: input ligand: tryptophan 2.4 mM.
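Also: bound reporter read as fluorescence of individual clusters on recovered sequencing chips by microscopy, with normalized cluster intensities fitted with a binding model.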

Consider “AAAACUCCGGGUAGUGAUGUUACCUAGGAUACCAGUAUCGCAACAUACCCUUGGCAGCCUCUUCCUGCUGGCGUCGCUUGGCCUA [theeternabot_exclusion_KL_Theo_A_42]”, for which the “apparent KD of K4 kissing-loop reporter” value is, setting by setting: (input ligand: FMN 200 uM) 95.2 nM; (input ligand: arginine 13.2 mM) 80.5 nM; (input ligand: none) 90.8 nM; under setting [1], 91.9 nM; under setting [2], 75.1 nM.
For “AACAGCAAUGCGGCCGCCACUUCGAGGUCAGUGAUGUUGACGGGAUUAAAUAAAGAUCCCAAGAGGAGGACCGGGCAGUGCUGUU [whbob_SS_Tryp_B_t26]”, the “apparent KD of K4 kissing-loop reporter” value is, setting by setting: (input ligand: FMN 200 uM) 225 nM; (input ligand: arginine 13.2 mM) 195 nM; (input ligand: none) 215 nM; under setting [1], 176 nM; under setting [2], 192 nM.
On to “UCCUGCAAUCGCCCACGAAAGUGGAUUGAUACCAGAGUCGAAAGACUCCCUUGGCAGCGAGUGAUGUUCGAAGCAGGUAAAUAAA”, for which the “apparent KD of K4 kissing-loop reporter” value reads like this: (input ligand: FMN 200 uM) 326 nM; (input ligand: arginine 13.2 mM) 503 nM; (input ligand: none) 562 nM; under setting [1], 540 nM; under setting [2], 459 nM.
With “UUGGCAGUGAUGUUGCCAGAGCUCACCGAAGGAGCGCGUGAAAACGCAGGUAGGUCGCGGUAGCGGAGUGAUUCUCCGCGAGGGC [Same State Arginine A GF 21]”, the “apparent KD of K4 kissing-loop reporter” value is, setting by setting: (input ligand: FMN 200 uM) 44.5 nM; (input ligand: arginine 13.2 mM) 71.7 nM; (input ligand: none) 77.2 nM; under setting [1], 80.3 nM; under setting [2], 87.9 nM.
Take “GCUAUGGUAGGAAGGAGCGCUUAAUUACUAAUAAGAGUGAUGUUCGAUAGUAGGUAUUUAUAGCAGGUAGGUCGCCUACUAUAGC [KL-Arg B23]”: the “apparent KD of K4 kissing-loop reporter” value reads like this: (input ligand: FMN 200 uM) 200 nM; (input ligand: arginine 13.2 mM) 171 nM; (input ligand: none) 176 nM; under setting [1], 244 nM; under setting [2], 174 nM.
Take “GUUACGCAUGGAAGGAGCGCUCUCCGGUUGAUUGACACAGUGAUGUUGUGAUUCUACCGUAAGCAGGUAGGUCGCCAUGUGUAAC [Ex Arginine B K4 13]”: the “apparent KD of K4 kissing-loop reporter” value (input ligand: FMN 200 uM) was 950 nM; the “apparent KD of K4 kissing-loop reporter” value (input ligand: arginine 13.2 mM) worked out at 809 nM; the “apparent KD of K4 kissing-loop reporter” value (input ligand: none) turned out to be 1210 nM; the “apparent KD of K4 kissing-loop reporter” value under setting [1] is 1050 nM; the “apparent KD of K4 kissing-loop reporter” value under setting [2] is 921 nM.
In the case of “UGCUUUAUCAGAAGGAGCGCGUUGGUCAUAAUAAUAAUCAGUGAUGUUGAUAUAUGAGGAUUGCAGGUAGGUCGCUGAUAUAGCU [KL-XARG-B1]”, the “apparent KD of K4 kissing-loop reporter” value was found to be 323 nM (input ligand: FMN 200 uM); 210 nM (input ligand: arginine 13.2 mM); 390 nM (input ligand: none); 255 nM under setting [1]; 229 nM under setting [2].
As to “GGAGGGAUCUCGGCCGCCACUCAUAAGAAAUGAACCUCAGAAAUAUAGUGAUGUUAUAUAAAGAAGAGGACCGGGAGAAAGGAGG [ExTryptoB.B]”, the “apparent KD of K4 kissing-loop reporter” value by setting is: (input ligand: FMN 200 uM) 167 nM; (input ligand: arginine 13.2 mM) 137 nM; (input ligand: none) 161 nM; under setting [1], 158 nM; under setting [2], 168 nM.
On the same counts, the results for “CAUAUACAAGUGAUGUUUGUACUAACCGAAGGAGCGUCGUUGAAGACAGGUAGGUCGCGGUUUAAGUUAGAUUAUAUAAUUCCAC [JR_Nu_SSArginiA_Sub027]” are 705 nM, 535 nM, 892 nM, 715 nM and 509 nM.
For “GCUAUGGUAGGAAGGAGCGCGGACGAUAUUUAUCGAGUGAUGUUCGAAUAAUUAAAUAAAACGCAGGUAGGUCGCCUACUAUAGC [Arginine B K4 27]”, the “apparent KD of K4 kissing-loop reporter” value is, setting by setting: (input ligand: FMN 200 uM) 108 nM; (input ligand: arginine 13.2 mM) 113 nM; (input ligand: none) 99.9 nM; under setting [1], 102 nM; under setting [2], 94 nM.
As to “UGAUACCAGACGGCCGCCACUCCCGUAAGUCAAAGACUUACGAAGAGAGUUUUCCAGUGAUGUUGGAGGACCGGGUCUGGUAUCU [FiskerMod 15 - Jieux - Exclusion - Tryptophan B]”, the “apparent KD of K4 kissing-loop reporter” value reads like this: (input ligand: FMN 200 uM) 186 nM; (input ligand: arginine 13.2 mM) 168 nM; (input ligand: none) 175 nM; under setting [1], 174 nM; under setting [2], 232 nM.
“UUGAGCCGGACGUAAGUCCGGCUCUGCGAGCGAGGACCGGUACGGCCGCCACUCGGUGCAGUGAUGUUGCAUGGCCGCAAGGCCG [#2 Exclusion - Tryptophan A Attempt #5 (HarryS)]”: the “apparent KD of K4 kissing-loop reporter” value came to 324 nM (input ligand: FMN 200 uM); 233 nM (input ligand: arginine 13.2 mM); 235 nM (input ligand: none); 394 nM under setting [1]; 278 nM under setting [2].
Take “AAAAUAAGCCAGUGAUGUUGGUACCCAGAUACCAGCGACGAAAGUCGCCCUUGGCAGCUGUGGACGUACAAAAUAAGUACGUCCU”: the “apparent KD of K4 kissing-loop reporter” value is, setting by setting: (input ligand: FMN 200 uM) 434 nM; (input ligand: arginine 13.2 mM) 209 nM; (input ligand: none) 315 nM; under setting [1], 617 nM; under setting [2], 303 nM.
On to “UUUAUAAUGUCGGCCGCCACUGGAUUAAUAUUUGUAUAAUCUAGUUCUAAGUGAUGUUUAGAGUCCAGGACCGGGACAUUUGUUA [#09 K4 Tryptophan B Exclusion]”, for which the “apparent KD of K4 kissing-loop reporter” value came out at 395 nM (input ligand: FMN 200 uM); 282 nM (input ligand: arginine 13.2 mM); 300 nM (input ligand: none); 311 nM under setting [1]; 212 nM under setting [2].
For “AAUUUAGUGACGGCCGCCACUAUGGUGAUUUAUUUGUUUGAGUGAUGUUUUGAUGUUUGAUUUUGUAGGACCGGGUUAGGUGAUG [aaacmullin]”, the “apparent KD of K4 kissing-loop reporter” value turned out to be 355 nM (input ligand: FMN 200 uM); 293 nM (input ligand: arginine 13.2 mM); 364 nM (input ligand: none); 354 nM under setting [1]; 279 nM under setting [2].
For “UGCUUAAUGGAAGGAUAUUAGGGUUCGACCGCGUAUCAUUGUUAGUCUGGCCAGUGAUGUUGGCCUUAAGAAGGUCCGCUACGGU [theeternabot_exclusion_KL_FMN_B_27]”, the “apparent KD of K4 kissing-loop reporter” value (input ligand: FMN 200 uM) came to 207 nM; the “apparent KD of K4 kissing-loop reporter” value (input ligand: arginine 13.2 mM) came to 201 nM; the “apparent KD of K4 kissing-loop reporter” value (input ligand: none) stood at 171 nM; the “apparent KD of K4 kissing-loop reporter” value under setting [1] came out at 204 nM; the “apparent KD of K4 kissing-loop reporter” value under setting [2] was found to be 130 nM.
For “AAACGUUGGUCGGAUACCAGUUAGACCGAUAAGGUCAAAACUGGAGUGAUGUUCCCAAAUAACCCUUGGCAGCCGACCGACGAAA [MAT - Same State Theophlline B - Mod of Eli - D12]”, the “apparent KD of K4 kissing-loop reporter” value was found to be 318 nM (input ligand: FMN 200 uM); 126 nM (input ligand: arginine 13.2 mM); 214 nM (input ligand: none); 219 nM under setting [1]; 213 nM under setting [2].
Take “ACGAUCAUGUCGGCCGCCACUGAGAGUAGUGAUGUUACUUUUAUGUUUUAGUUAUAAUAUUUGAACAGGACCGGGACAUGUUCGU [JR_ExcTryptoB_Sub023]”: the “apparent KD of K4 kissing-loop reporter” value was 103 nM (input ligand: FMN 200 uM); 84.8 nM (input ligand: arginine 13.2 mM); 85.3 nM (input ligand: none); 80.1 nM under setting [1]; 92.2 nM under setting [2].
Turning to “AGGUCCGAGCCCGCAAGGGCUCGGACCUGUUAGGAUAUGACGUUAUUCAGAAGGGAUGGGUGGAGUGAUGUUCCACCCGCGAGGG [#2 Same State - FMN A Attempt #12 (HarryS)]”, the “apparent KD of K4 kissing-loop reporter” value was determined as 132 nM (input ligand: FMN 200 uM), 131 nM (input ligand: arginine 13.2 mM), 202 nM (input ligand: none) and 149 nM under setting [2].
“AGAUGUCCCUGGGAUACCAGUCGGAGUCUCAGAGCUCGGAGUGAUGUUCUGGGAUGUUUCGGCCCUUGGCAGCUCUGGGACUCCC [#2 Exclusion - Theophylline B Attempt #25 (HarryS)]”: the “apparent KD of K4 kissing-loop reporter” value was 603 nM (input ligand: FMN 200 uM); 722 nM (input ligand: arginine 13.2 mM); 847 nM (input ligand: none); 708 nM under setting [1]; 909 nM under setting [2].
In the case of “AGUGAUAUAUGAGGAUAUGGGUUGGUUAAUGAGUUAGUUUUAGUGUUGUUUGGUUAGUGAUGUUAUUUAGAAGGCGUGAGUGAUG [sffdsmullin]”, the “apparent KD of K4 kissing-loop reporter” value is 99.6 nM (input ligand: FMN 200 uM); 88.3 nM (input ligand: arginine 13.2 mM); 81.8 nM (input ligand: none); 95.8 nM under setting [1]; 71.8 nM under setting [2].

(Values after the supplement of paper PMC9170038.)
